Assay [1] deals with human GALR3 receptor (human) (UniProt O60755). The assay is described as follows: cell-based or functional assay.
The target of assay [2] is rat GALR2 receptor (rat) (UniProt O08726). The assay is described as follows: cell-based or functional assay.
The target of assay [3] is rat GALR1 receptor (rat) (UniProt Q62805). Description: cell-based or functional assay.
In assay [4] the target is T1, rat GALR3 receptor (rat, UniProt O88626 1-370).
T1 construct: also called rGALR3; rGalR3
T1 sequence: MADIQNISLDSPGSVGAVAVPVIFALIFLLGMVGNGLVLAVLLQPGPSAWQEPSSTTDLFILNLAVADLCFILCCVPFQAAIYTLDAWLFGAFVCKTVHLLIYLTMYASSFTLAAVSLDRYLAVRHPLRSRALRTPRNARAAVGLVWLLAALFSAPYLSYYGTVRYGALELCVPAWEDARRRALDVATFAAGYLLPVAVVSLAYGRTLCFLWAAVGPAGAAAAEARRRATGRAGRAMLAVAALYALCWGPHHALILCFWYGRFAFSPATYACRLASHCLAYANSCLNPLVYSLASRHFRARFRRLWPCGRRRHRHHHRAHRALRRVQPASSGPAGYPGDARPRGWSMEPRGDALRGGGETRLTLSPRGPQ
Description: porcine 125I-galanin competition binding, 293 #105.

Sequence of rat GALR2 receptor (rat) (O08726 whole entry): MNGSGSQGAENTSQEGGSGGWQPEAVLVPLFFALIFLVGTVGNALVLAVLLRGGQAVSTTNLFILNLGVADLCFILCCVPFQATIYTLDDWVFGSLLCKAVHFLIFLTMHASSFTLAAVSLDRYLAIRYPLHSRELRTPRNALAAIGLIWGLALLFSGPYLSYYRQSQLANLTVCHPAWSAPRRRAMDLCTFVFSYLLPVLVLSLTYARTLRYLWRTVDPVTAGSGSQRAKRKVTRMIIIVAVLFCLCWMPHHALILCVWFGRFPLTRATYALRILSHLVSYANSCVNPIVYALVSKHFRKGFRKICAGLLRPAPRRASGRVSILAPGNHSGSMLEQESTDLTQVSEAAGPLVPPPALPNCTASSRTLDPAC
Sequence of human GALR3 receptor (human) (O60755 whole entry): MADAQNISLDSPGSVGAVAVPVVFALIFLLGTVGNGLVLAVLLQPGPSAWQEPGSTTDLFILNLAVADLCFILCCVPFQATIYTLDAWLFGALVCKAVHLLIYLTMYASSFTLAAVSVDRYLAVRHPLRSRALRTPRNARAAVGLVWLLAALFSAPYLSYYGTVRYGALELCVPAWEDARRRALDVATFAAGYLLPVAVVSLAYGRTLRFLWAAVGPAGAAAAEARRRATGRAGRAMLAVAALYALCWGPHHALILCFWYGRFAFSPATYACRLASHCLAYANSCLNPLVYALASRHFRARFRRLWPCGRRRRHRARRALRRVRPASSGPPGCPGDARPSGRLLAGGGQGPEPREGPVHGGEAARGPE
Sequence of rat GALR1 receptor (rat) (Q62805 whole entry): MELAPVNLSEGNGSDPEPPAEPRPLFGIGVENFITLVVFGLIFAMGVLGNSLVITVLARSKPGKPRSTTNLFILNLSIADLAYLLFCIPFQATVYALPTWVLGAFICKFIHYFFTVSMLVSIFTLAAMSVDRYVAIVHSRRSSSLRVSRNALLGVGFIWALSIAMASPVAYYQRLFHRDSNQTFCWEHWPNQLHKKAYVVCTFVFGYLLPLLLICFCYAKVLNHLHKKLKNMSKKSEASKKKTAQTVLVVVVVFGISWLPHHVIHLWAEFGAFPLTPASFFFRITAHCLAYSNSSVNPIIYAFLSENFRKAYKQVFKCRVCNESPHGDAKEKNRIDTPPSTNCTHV

The molecule C7 (peptide) displayed an Oocyte EC50 for stimulation of GIRKs in assay [1] of 343 nM. Besides, the EC50, AA (arachidonic acid release), CHO #79 in assay [2] amounted to 2.41 nM. This molecule also came in with an EC50, cAMP, LM(tk-) in assay [3] of 0.52 nM.

B1: (-)9 to (+)29 galanin, porcine (peptide, UniProt P07480 24-61, looked up)
peptide: LGSPVKEKRGWTLNSAGYLLGPHAIDNHRSFHDKYGLA
notes: range -9 to +29; also called galanin -9 to +29
The molecule B1 displayed a Ki in assay [4] of 4.17 nM.

Values taken from US20030119096A1 (published 2003).
